Measurements as given in patent US20170326260A1 (CYTOMX THERAPEUTICS, published 2017).

Columns and labels:
parental antibody C225v5 = experiment: ELISA; target antibody coated at 1 ug/ml, HRP anti-rabbit IgG, OD 450 nm
Description: (§1) The plates were washed with PBS/0.05% Tween 20 (wash butter) and then blocked with PBS/1% BSA for 1 hour at room temperature. The blocking buffer was removed, and the anti-AA antibodies 41, 58, 72 or 85, i.e., antibodies that bind activatable antibodies and/or conjugated activatable antibodies, were added and incubated for 1 hour. The plates were washed with wash buffer and incubated with 50 μl of 1 μg/ml of horseradish peroxidase conjugated donkey anti-rabbit IgG antibody for 1 hour. The plates were washed with wash buffer and 100 μl/well of TMB substrate was added. The reaction was stopped by the addition of 100 μl 1M HCl and the OD 450 nm was measured.

[1] = target: 3954-1204-c225v5 activatable anti-EGFR antibody activated with uPA; experiment: as above
Description: as §1

binding result (parental antibody C225v5): no binding
binding result [1]: no binding
B1: antibody 85-1 (antibody, V domains shown)
VH: QSLEESGGHLVTPGTPLTLTCKASGFSLSSYCMSWVRQAPGKGLEWIGIIGGICSTYYAAWAKGRFTISKTSTTVDLKIASPTTEDTATYFCARPAYNSDPIWGPGTLVTVSS
VL: QVLTQTPSPVSVAVGGTVTINCQASQSVYNNNYLSWYQQKPGQPPKVLIYDAATLASGVSSRFRGSGSGTQFTLTISDVQCDDAATYYCLGEFSCGSADCNAFGGGTEVVVKG
notes: also called clone 85
